Where no end group is shown, it is not given here.
How the values were obtained:
[1] = target: T1, Sushi domain 1 of the human GABA B1a receptor (human, UniProt Q9UBS5 26-96); test: FP competition vs FITC-9mer on purified SD1; 9-mer
T1 construct: Purified recombinant protein from E. coli; also called SD1; GABABR1a-SD1
Protocol: To screen for GABABR1a binders using unlabelled test compounds, the assay was turned into a competition assay using FITC-9mer. […] To validate this inhibitor assay, the IC50 values were determined of the 17-mer, 9-mer, 5-mer as well as those from 3 negative controls: 10-mer, scrambled 17-mer and a scrambled 9-mer (FIG. 2).
To determine if the peptides of this application were able to disrupt the SD1-9-mer complex, each peptide (in single point or dose-response curve) tested was incubate with SD1 protein for 1 h at RT. After this initially incubation, FITC-9mer was added to the previous mix and incubated during 2 h at RT. The signal intensity was measure in an appropriate plate reader using the following settings: Number of flashes per well: 200; Excitation: F482-16; Dichroic filter: FLP 504; Emission A F530-40; Gain A: 738, Gain B: 736. The assay was conducted in a 384-well plate.

[2] = target: T1, Sushi domain 1 of the human GABA B1a …; test: ITC, peptide titrated into purified SD1
Protocol: First, we wondered whether the wild-type sAPP 9-mer peptide would be the optimal sequence in terms of SD1 binding or whether sequence variants of the sAPP 9-mer would have improved binding to the GABABR1a-SD1. Therefore a panel of single and double sAPP 9-mer mutants was generated. An alanine scan was performed for the residues on position 1 to position 7. Based on an ITC assay, these single mutant peptides bound the SD1 with the same or slightly higher Kd (Table 1). Also the double mutants VIB_P04, VIB_P05 and VIB_P19 bound with a similar Kd to SD1 compared to the wild-type 9-mer. We have also tested the effect of the D-isomer of the amino residues on position 1 to 4, in single or multiple combinations. None of the mutations had strong effects on the measured Kd (Table 1). We therefore conclude that the wild-type sAPP 9-mer is already optimized but that many variants bind as good to SD1 and thus will modulate GABABR1a in a similar manner.
The Sushi-1 protein was dialysed overnight to PBS buffer and diluted to 30 μM in the same buffer. The peptides were resuspended in PBS at a stock concentration of 3 mM and diluted further in the same buffer to 300 μM. ITC experiments were performed on a Microcal ITC200 device. Titrations comprised 26×1.5 μL injections of peptide into protein, with 90 s intervals. An initial injection of ligand (0.5 μL) was made and discarded during data analysis. The data were fitted to a single binding site model using the Microcal LLC ITC₂₀₀. Original software provided by the manufacturer.

[3] = target: GABABR1b expressed on cells (UniProt Q9UBS5-2 30-474, limits assumed); test: cell-based binding assay, flow cytometry
GABABR1b expressed on cells, sequence (Q9UBS5 other isoform, or with tags, fused parts or gaps limits assumed): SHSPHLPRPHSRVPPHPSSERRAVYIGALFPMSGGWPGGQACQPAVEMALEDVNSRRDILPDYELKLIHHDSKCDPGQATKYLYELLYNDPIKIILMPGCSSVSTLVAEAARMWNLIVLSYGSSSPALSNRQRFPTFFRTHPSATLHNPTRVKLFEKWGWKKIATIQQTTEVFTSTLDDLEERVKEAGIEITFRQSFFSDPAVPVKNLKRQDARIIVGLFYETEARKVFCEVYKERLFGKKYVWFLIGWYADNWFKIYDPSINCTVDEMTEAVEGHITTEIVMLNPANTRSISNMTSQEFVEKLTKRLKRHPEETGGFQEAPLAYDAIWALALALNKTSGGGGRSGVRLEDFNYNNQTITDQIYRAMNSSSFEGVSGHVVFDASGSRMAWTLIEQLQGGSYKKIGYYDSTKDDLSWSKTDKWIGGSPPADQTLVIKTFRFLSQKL

T1 sequence (Q9UBS5 26-96 limits assumed): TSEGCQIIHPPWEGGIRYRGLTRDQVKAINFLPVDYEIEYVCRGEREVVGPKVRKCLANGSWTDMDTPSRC

Row | IC50 [1] | Kd [2] | binding result [3] | Binder
1 | 11 µM | 3 µM |  | DDSDVWWGG (Unlabelled) [wild-type sAPP 9-mer]
2 |  |  | no binding | DDSDVWWGG (also: biotin tag, site not given here, also called biotin-9mer; biotion-9mer) [9-mer tagged with Biotin]

— patent US20240376149A1, “Novel Modulators of GABABR1a” (VIB VZW, priority 2021, published 2024)
